Data on one molecule can be found in patent publication US20110064726A1 (published 2011).

The target in experiment [1] is T1, human IgE (full length human immunoglobulin E) (human, UniProt P01854 1-546). The experiment in a line: ELISA, immunoglobulin coated at 4 µg/mL, anti-human IgG2 detection. Here is the method:
(§1) Wells were washed 3× with 150 μL wash buffer (0.05% Tween-20 (Sigma, Cat. No. P7949)/PBS) then blocked with 150 μL/well blocking buffer (2.5% BSA (Sigma, Cat. No. A7030)/PBS) for 2 hours at room temperature. Wells were washed 3× with 150 μL wash buffer/well. […] Antibodies were diluted in diluent buffer (PBS/1% BSA/0.05% Tween-20) and this was added to blank control wells (duplicate wells for each secondary antibody used). Antibodies were incubated for 2 hours at room temperature. Wells were washed 3× with 150 μL wash buffer/well. Binding of control antibodies to immunoglobulin was detected with anti-mouse IgG-HRP conjugate (Sigma, Cat. No. A4416) diluted 1:8000 in diluent buffer. 50 μL/well was added to control antibody and blank wells. Wells were incubated for 1 hour at room temperature, then washed 3× with 150 μL wash buffer/well. 50 μl OPD (Dako, Cat. No. […] Wells were incubated for 1 hour at room temperature then washed 3× with 150 μL wash buffer/well. Streptavidin-HRP (Amersham Bioscience, Cat. No. RPN 1231) diluted 1:2000 in diluent buffer was added to all wells and incubated for 45 minutes at room temperature. Wells were washed (3×150 μL wash buffer).

Experiment [2] concerns the target T2, human IgA (human).
T2 construct: bought preparation coated on the ELISA plate
The description is as above. As to the method: as §1

The target of experiment [3] is T3, human IgG1 (human, UniProt P01857-1 1-330 = IgG part).
T3 construct: bought preparation coated on the ELISA plate; not shown: bought immunoglobulin, light chain not described
T3 sequence (P01857 other isoform, or with tags, fused parts or gaps): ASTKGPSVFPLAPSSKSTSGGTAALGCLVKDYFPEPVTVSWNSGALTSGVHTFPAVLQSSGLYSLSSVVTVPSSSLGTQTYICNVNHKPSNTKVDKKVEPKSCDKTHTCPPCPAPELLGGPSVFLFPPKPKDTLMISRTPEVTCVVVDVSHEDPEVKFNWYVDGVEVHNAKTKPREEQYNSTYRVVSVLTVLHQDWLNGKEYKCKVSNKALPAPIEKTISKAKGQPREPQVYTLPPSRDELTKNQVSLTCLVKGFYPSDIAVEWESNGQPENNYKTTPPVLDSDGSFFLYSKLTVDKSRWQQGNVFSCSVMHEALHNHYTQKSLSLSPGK
The description is as above. Here is the method:
as §1

Experiment [4] has as its target T4, human IgG3 (human, UniProt P01860-1 1-377).
T4 construct: bought preparation coated on the ELISA plate; not shown: bought immunoglobulin, light chain not described
The description is as above. As to the method:
as §1

Experiment [5] deals with T1, human IgE (full length human …). The experiment in a line: serum free IgE depletion ELISA; DIN 0155, initial free IgE 93 ng/mL. Background: In an ELISA, binding on a coated surface is turned into a signal by an enzyme label.
The target is the same in experiment [6]. The experiment in a line: serum free IgE depletion ELISA; DIN 0649, initial free IgE 93 ng/mL.
Experiment [7] has the same target. The experiment in a line: serum free IgE depletion ELISA; DIN 0284, initial free IgE 339 ng/mL.
The target is the same in experiment [8]. The experiment in a line: serum free IgE depletion ELISA; DIN 0347, initial free IgE 221 ng/mL.
Experiment [9] shares this target. The experiment in a line: serum free IgE depletion ELISA; DIN 0591, initial free IgE 152 ng/mL.
Experiment [10] shares this target. The experiment in a line: serum free IgE depletion ELISA; DIN 0382, initial free IgE 2827 ng/mL.
For experiment [11] the target is unchanged. The experiment in a line: serum free IgE depletion ELISA; DIN 0748, initial free IgE 4609 ng/mL.
For experiment [12] the target is unchanged. The experiment in a line: serum free IgE depletion ELISA; DIN 0011 experiment 1, initial free IgE 555 ng/mL.
For experiment [13] the target is unchanged. The experiment in a line: serum free IgE depletion ELISA; DIN 0011 experiment 2, initial free IgE 326 ng/mL.
For experiment [14] the target is unchanged. The experiment in a line: serum free IgE depletion ELISA; DIN 0321 experiment 1, initial free IgE 262 ng/mL.
Experiment [15] has the same target. The experiment in a line: serum free IgE depletion ELISA; DIN 0321 experiment 2, initial free IgE 265 ng/mL.
The target is the same in experiment [16]. The experiment in a line: serum free IgE depletion ELISA; DIN 0451 experiment 1, initial free IgE 557 ng/mL.
For experiment [17] the target is unchanged. The experiment in a line: serum free IgE depletion ELISA; DIN 0451 experiment 2, initial free IgE 534 ng/mL.
Experiment [18] has the same target. The experiment in a line: serum free IgE depletion ELISA; DIN 0623 experiment 1, initial free IgE 145 ng/mL.
Experiment [19] shares this target. The experiment in a line: serum free IgE depletion ELISA; DIN 0623 experiment 2, initial free IgE 133 ng/mL.
Experiment [20] shares this target. The experiment in a line: serum free IgE depletion ELISA; DIN 0632 experiment 1, initial free IgE 532 ng/mL.
Experiment [21] has the same target. The experiment in a line: serum free IgE depletion ELISA; DIN 0632 experiment 2, initial free IgE 289 ng/mL.

T1 sequence (P01854 whole entry): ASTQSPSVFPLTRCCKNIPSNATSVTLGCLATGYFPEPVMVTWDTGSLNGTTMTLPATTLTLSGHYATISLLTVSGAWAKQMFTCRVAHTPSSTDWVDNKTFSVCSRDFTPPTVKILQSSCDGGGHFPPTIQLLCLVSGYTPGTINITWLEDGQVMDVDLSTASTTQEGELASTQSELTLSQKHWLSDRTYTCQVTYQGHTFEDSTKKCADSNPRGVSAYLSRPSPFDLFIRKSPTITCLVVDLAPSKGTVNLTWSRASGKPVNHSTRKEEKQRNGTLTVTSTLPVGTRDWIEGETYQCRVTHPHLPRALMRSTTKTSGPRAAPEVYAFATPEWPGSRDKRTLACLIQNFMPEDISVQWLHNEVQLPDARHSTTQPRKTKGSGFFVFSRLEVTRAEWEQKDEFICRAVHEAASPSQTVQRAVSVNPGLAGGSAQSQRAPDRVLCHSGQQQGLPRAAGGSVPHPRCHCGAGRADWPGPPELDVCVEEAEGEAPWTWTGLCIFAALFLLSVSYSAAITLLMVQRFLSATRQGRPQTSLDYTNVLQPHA
T4 sequence (P01860 other isoform, or with tags, fused parts or gaps): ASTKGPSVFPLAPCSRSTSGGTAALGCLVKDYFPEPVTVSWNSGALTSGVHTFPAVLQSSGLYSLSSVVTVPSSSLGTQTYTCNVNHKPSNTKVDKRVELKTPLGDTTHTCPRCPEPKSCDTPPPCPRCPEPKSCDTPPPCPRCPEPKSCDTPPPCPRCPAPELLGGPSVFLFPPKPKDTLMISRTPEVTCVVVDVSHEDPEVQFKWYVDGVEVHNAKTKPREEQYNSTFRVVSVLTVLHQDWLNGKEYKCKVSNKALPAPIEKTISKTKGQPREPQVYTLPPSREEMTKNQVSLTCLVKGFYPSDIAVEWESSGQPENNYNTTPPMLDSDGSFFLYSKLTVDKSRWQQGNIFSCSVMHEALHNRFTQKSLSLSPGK

B1: recombinant 5.948.1 (antibody, human IgG2, kappa, V domains shown)
VH: QVQLVQSGAEVKKPGASVKVSCKASGYTFTSYDINWVRQATGQGLEWMGWMDPNSGNTGYAQKFQGRVTMTRNTSISTAYMELSSLRSEDTAVYYCARGHYDSDGYYSFSGMDVWGQGTTVTVSS
VL: not shown
notes: human IgG2 kappa; two batches (762.8 µg/mL and 5.2 mg/mL) were tested; also called 5.948.1 (recombinant); 5.948.1 - Batch 1
Regarding B1, the A290 nm in [1] worked out at 2.57 absorbance; in experiment [2], 0.04 absorbance; in experiment [3] it was 0.07 absorbance; in experiment [4], 0.04 absorbance. Moreover, the IC25ng/mL in [5] amounted to 1.81 µg/mL; in experiment [6], 1.95 µg/mL; in experiment [7], 2.45 µg/mL; in [8], 4.92 µg/mL; in experiment [9], 2.35 µg/mL; in experiment [10], 25 µg/mL. The IC25ng/mL in [11] was found to be 25.1 µg/mL; in [12], 3.3 µg/mL; in experiment [13], 6.34 µg/mL; in experiment [14], 1.34 µg/mL; in [15], 7.9 µg/mL; in experiment [16] it was 11.6 µg/mL. In addition, the IC25ng/mL in experiment [17] turned out to be 39.7 µg/mL; in [18] it was 0.5 µg/mL; in [19], 4.13 µg/mL; in experiment [20], 8.91 µg/mL; in experiment [21], 6.31 µg/mL.
